# Legend:
# HSV-1 [1] = assay: Quantitative neutralizing activity through indirect immunofluorescence (IIF), InCellAnalyzer count; format: cell-based, HSV-1 (HF strain); details: IgG1 Fab; Vero E6 cells
# Method: (§1) The neutralizing activity of Fabs Ex2, Ex2B, Ex2C, Ex2H and Ex2I was evaluated using the InCellAnalyzer automated count system in order to calculate the IC50s of all Fab and obtain a dose-response curve. Several dilutions of the different Fabs were used in order to obtain the dose-response curve. In all sets of neutralization experiments several Fab dilutions were performed since only using a biological compound limit dilution was possible to obtain the exact amount of Fab able to inhibit viral infection.
# (§2) Moreover, the same “dose-response” curve allowed the calculation of Fab IC50 which effectively depicts the in vitro Fab potency. The IC50 is the Fab concentration able to reduce by 50% the cell damage due to the infection of cell monolayer with a standard amount of virus (HSV-1 and HSV-2).
# (§3) Quantitative Neutralizing Activity Evaluation Through Indirect Immunofluorescence (IIF) Assay Protocol: […]
# (§4) Neutralization activity was then assessed by counting the immunofluorescence infection foci through InCellAnalyzer system.
# (§5) The number of infection foci in the cell monolayer infected with viruses treated with the different Fab preparations was compared with the foci counted for the virus control (same virus amount)
# (§6) The percentage of neutralization was then evaluated and a standard deviation from the mean was calculated as well (the experiment was performed in triplicate)
# HSV-2 [2] = assay: Plaque reduction assay; format: cell-based, HSV-2 (MS strain); details: due to very high potency
# Method: (§7) Dose-response quantitative assay: the capability of Fab Ex2 to inhibit HSV infection was assessed by evaluating the presence of lysis plaques on cell monolayer due to HSV infection in the presence or in the absence of Fab Ex2. To confirm the IIF neutralization data, a plaque reduction assay was performed as quantitative evaluation.
# (§8) Quantitative Neutralizing Activity Evaluation Through Plaque Reduction Assay Protocol:
# (§9) 7×10^5 Vero cells/well were seeded in a 6-wells plate and grown in the appropriate complete medium supplemented with 10% FCS. Experiment was performed with cells at 100% confluence.
# (§10) HSV-1 and HSV-2 viral stocks dilution (−5 and −4 respectively) were pre-incubated with purified Fab of interest at different concentrations (5, 2.5 and 1 μg/mL) in a final volume of 800 μL of complete DMEM, for 1 h at 37° C. and 5% CO2.
# (§11) Experimental controls were added as well.
# (§12) After washing the cells with a PBS 1× solution, viral solutions were added to the monolayers and incubated for 2 h at 37° C. and 5% CO2 for adsorption. […]
# (§13) Neutralization activity was then assessed by counting the plaque forming units (PFU). In particular, the number of PFU in the cell monolayer infected with Fab-treated viruses was compared with the PFU counted for the virus control (same virus amount).
# HSV-2 [3] = assay: Quantitative neutralizing activity through indirect immunofluorescence (IIF), InCellAnalyzer count; format: cell-based, HSV-2 (MS strain); details: IgG1 Fab; Vero E6 cells
# Method: as §1, §2, §3, §4, §5, §6
# HSV-1 [4] = assay: Plaque reduction assay; format: cell-based, HSV-1 (HF strain); details: 1 μg/mL
# Method: as §7, §8, §9, §10, §11, §12, §13
# HSV-2 [5] = assay: Syncytia formation evaluation (qualitative neutralization assay); format: cell-based, HSV-2 (MS strain)
# Method: (§14) Purified Fabs (Ex2(G2), Ex2B(G2), Ex2C(G2), Ex2H(G2) and Ex2I (G2) were pre-incubated (10 μg/mL) with a standard amount of HSV-1 or HSV-2 isolates. Appropriate experimental controls were also included. The different “infection-mix” was used to infect Vero E6 cells (adsorption 2 hours before change of medium).
# (§15) After twenty hours, the cell monolayers were Fixed and Permeabilized with crystal violet containing solution allowing first a qualitative evaluation of Fabs biological activities against both HSV-1 and HSV-2 isolates (procedure described in the Materials and Methods section). The reduction of syncytia formation was assessed by bright field phase contrast optical microscopy. As already stated, this assay allowed a first evaluation of Fab potencies.
# (§16) The qualitative assays (described in the Materials and Methods section) were performed on IgG1 format of selected anti-HSV-1 and 2 Fabs (FIG. 11).
# (§17) In order to evaluate the potency of Fab Ex2, a qualitative assay using different dilutions was performed. Three different concentrations of Ex2 (10 μg/ml, 5 μg/ml and 2.5 μg/ml) were tested against HSV-1 and 2 through the syncytia formation assay.
# (§18) Syncytia Formation Evaluation Through Bright Field Phase Contrast Optical Microscope Protocol: […]
# (§19) The reduction of syncytia formation was assessed by bright field phase contrast optical microscope. […]
# HSV-1 [6] = assay: Cell-to-cell infection inhibition (plaque areas, post-adsorption); format: cell-based; details: Fabs 50 ug/mL, IgGs 25 ug/mL
# Method: (§20) Post post-adsorption assays have been performed in order to evaluate the contribution of IgGA in inhibiting “cell-to-cell” infection by measuring the plaque areas resulting from infected cells treated or untreated with FabA or IgGA.
# (§21) Fabs tested in post-adsorption cell-to-cell infection inhibition assays have also been preliminary used at a concentration of 50 and 200 ug/mL against HSV-1 and HSV-2 tested isolates respectively*.
# (§22) IgGs tested in post-adsorption “cell-to-cell” infection inhibition assays have also been preliminary used at a concentration of 25 and 100 ug/mL against HSV-1 and HSV-2 tested isolates respectively*.
# HSV-2 [7] = assay: as above; format: cell-based; details: Fabs 200 ug/mL, IgGs 100 ug/mL
# Method: as §20, §21, §22
# HSV-1 [8] = assay: Syncytia formation evaluation (qualitative neutralization assay); format: cell-based, HSV-1 (HF strain)
# Method: as §14, §15, §16, §17, §18, §19
molecule,measurement,setting,value
"Ex2: human monoclonal Fab, VH SEQ ID NO.1 and VL SEQ ID NO.2, IgG2 Fab converted to IgG1 (antibody, listed as Homo sapiens, V domains shown, IgG1 constant regions) VH: LESGGGVVQPGRSLRLSCAASGFTFTTFAMHWVRQAPGKGLEWLAFISYDGSNKYYADSVKGRFTISRDNSKNTLYLQMNSLRAEDTSIYYCAREVWNYADYWGQGALVTVSS VL: ELTQSPGTLSSSPGHRATLSCKASAPLGSNHMAWYQQKPGQAPRLLIYGASTRATGVPARFTGSGSGTDFTLTISSLQPEDFATYYCQQANSFPRTFGQGTKVEIK",HSV-1 (IC50 μg/mL ± CI 95%),HSV-1 [1],0.7 (0.44 ± 1.21) μg/mL
same,dose-response effect in HSV-2 plaque neutralization assay,HSV-2 [2],a dose-response effect could not be measured
same,HSV-2 (IC50 μg/mL ± CI 95%),HSV-2 [3],0.2 (0.19 ± 0.23) μg/mL
same,HSV-1 plaque formation measured as PFU,HSV-1 [4],inhibited
same,inhibition of HSV-2 infection (syncytia formation assay),"HSV-2 [5]; 10 μg/ml, 5 μg/ml and 2.5 μg/ml, very low concentrations",completely inhibit
same,"neutralizing potency of IgG1 format compared to IgG2 format, HSV-2",HSV-2 [5]; IgG1 converted Fabs,increased potency
same,"inhibition of plaque areas (cell-to-cell infection), HSV-1",HSV-1 [6],inhibits
same,"inhibition of plaque areas (cell-to-cell infection), HSV-2",HSV-2 [7],inhibits
same,"inhibition of cellular disruption and syncytia formation, HSV-1","HSV-1 [8]; 10 μg/ml, 5 μg/ml and 2.5 μg/ml, dose-dependent",strongly inhibit
same,"neutralizing potency of IgG1 format compared to IgG2 format, HSV-1",HSV-1 [8]; IgG1 converted Fabs,increased potency

# Source: US10899824B2 (Polichem S.A., priority 2016, dated 2021)
